Results published in the supplement of paper PMC9170038.

Tested on: MS2 coat protein
Assay: apparent KD of MS2 coat protein; designed switch direction (-1 OFF switch, 1 ON switch): -1; higher = weaker reporter binding
Procedure, shortened: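 Normalised cluster fluorescence was curve-fitted, and each design's median over clusters is its apparent KD. Before this, SNAP-549-labelled MS2 coat protein was titrated from 0.7 or 1.5 nM, doubling to 3 µM, over RNA switches transcribed on Illumina chips by stalled E. coli RNA polymerase. Titrations had no input, 200 uM small-molecule ligand, or an oligonucleotide input, and steps lasted 0.8–1.5 h (lowest) to 10–20 min (highest).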

[1] = input ligand: microRNA oligo, concentration not stated
[2] = Eterna round: R95, input ligand: microRNA oligo, concentration not stated
[3] = Eterna round: R95, input ligand: FMN 200 uM
[4] = Eterna round: R95, input ligand: none

Row | Sequence | apparent KD of MS2 coat protein [1] | apparent KD of MS2 coat protein (input ligand: FMN 200 uM) | apparent KD of MS2 coat protein (input ligand: none) | apparent KD of MS2 coat protein [2] | further results
1 | UAUAUAUAGUAAGGAUAUGUAAUUCUUUUAUAAACAGAAGGUACUGACAUGAGGAUCACCCAUGUUUUAGUGUGGGCAUGUAGA [JMF's solution 34] (Eterna round: R96, puzzle: Exclusion NG 1) | 53.1 nM | – | – | – | –
2 | GAAAACGCAGAGGAUAUUUCAGAUCAAAGCUGCAAAGAAGGCUGCACAUGAGGAUCACCCAUGUGGUCUUAAAA [Mod of Quesina 2 - Jieux - Exclusion 6] (Eterna round: R97, puzzle: Exclusion 6) | – | 337 nM | 23.8 nM | – | –
3 | AUAAAUCAUGUAGGAUAUGCGUAGCGAAGCUAUGCAGAAGGACAUGAGGAUCACCCAUGUCUUUCCGUCUGCGAACAGACGGAA [Mat - Exclusion NG 1 - Mod of JL - D43] (Eterna round: R96, puzzle: Exclusion NG 1) | 20 nM | 199 nM | 31.6 nM | – | –
4 | AUUAUAUAGAUAGGAUAUUGAUUAUUAUUUUAACAUGAGGAUCACCCAUGUAGCCUUAUGUAUAACAAGAAGGAUCAUUUAUUA [Title] (Eterna round: R96, puzzle: Exclusion NG 2) | 137 nM | – | – | – | –
5 | GUUAGUUAAGGAUAUACAGGGAGCUGCGGCGUCUCGCCGCAACAUGAGGAUCACCCAUGUAGAAGGUGACCUUU [JL ViennaUCT Enbibi mod 7] (puzzle: Exclusion 2) | – | – | – | 435 nM | –
6 | UUGAUACAUACCUCCAUAAACAUGAGGAUCACCCAUGUAAGUGAGGAUAUAGAUUGAUUAGUAUACUAGAAGGCACUUAGAUAU [JR_ExcNG3_Sub044] (Eterna round: R96, puzzle: Exclusion NG 3) | 8.91 nM | 11.6 nM | 13.3 nM | – | –
7 | UACCGGCGGACCGAAGCUUUUUGCUUGUCUUAUACUACGACAUGAGGAUCACCCAUGUGGUGGUGGUCCGUUGUAGU [JL ViennaUCT Bitein mod 3] (puzzle: Sensor v3, turn-off variant 2) | – | – | – | 13.1 nM | apparent KD of MS2 coat protein [3]: 48.3 nM; apparent KD of MS2 coat protein [4]: 52.1 nM
8 | ACCUCACAUGAGGAUCACCCAUGUUAGGAUAUCUCGGCGCCCUGCAGGCAGUGGCACCAGAGAAGGAACGUGCA [Xeindiisti] (puzzle: Exclusion 1) | – | – | – | 20.4 nM | –
9 | GUGUACAGAGGAUAUACUUGAAUCUAGCGAAGCUAGGUUCGACAUGAGGAUCACCCAUGUAGAAGGCUGUACAC [Dot plot directed A v2] (puzzle: Exclusion 2) | – | – | – | 12.4 nM | –
10 | UUUUUACAUGAGGAUCACCCAUGUCAGGAUAUCAUUAUAUUUUAUUAUUUUAUUUAUAUGAGAAGGGACUAUUA [My solution] (Eterna round: R96, puzzle: Exclusion 1) | 79.2 nM | 127 nM | 105 nM | – | –
11 | UUGUUUGUAGUGAGGAUAUCGUUGAGGAAGAGGAUCGAGAAGGCACAUGAGGAUCACCCAUGUUAGAUGUGGUU [JR_BMOE4_Sub082] (Eterna round: R96, puzzle: Brourd's mod of Exclusion 4) | 114 nM | 261 nM | 161 nM | – | –
12 | UAAUAUAAGCAAAGAUCCUACAUGAGGAUCACCCAUGUGCUCGUCUUAUAAAGUACUAUCACGAAAGUGAUAGUACA [Mat - Sensor v3 - turn-off var 1 - Eli Mod - D81] (puzzle: Sensor v3, turn-off variant 1) | – | – | – | 19.8 nM | apparent KD of MS2 coat protein [3]: 116 nM; apparent KD of MS2 coat protein [4]: 170 nM
13 | UCGCUGCGAGGAUAUACGUUUGCGCGUUUUCGUUUGCGCGUACAUGAGGAUCACCCAUGUAGAAGGCGCGCGGC [Apr-15 SS2-11] (puzzle: Exclusion 2) | – | – | – | 12.2 nM | –
14 | CUGCUCCGUGUAGGAUAUGCAUACUCCCAUUAUGCAGAAGGACAUGAGGAUCACCCAUGUAUGUUAUUAUCAUGUGUUGCGUGC [Design 12] (Eterna round: R96, puzzle: Exclusion NG 1) | 30 nM | – | – | – | –
